For assay [1], the target named is CD123 (human IL-3Rα) (human) (UniProt P26951). The assay can be described thus: method not stated (indicative KD).
The target in assay [2] is CD123 (human IL-3Rα) on cells (human) (UniProt P26951). The assay can be described thus: cell-based or functional assay.
The target of assay [3] is CD123 (human IL-3Rα) (human) (UniProt P26951). The assay can be described thus: method not stated.
Assay [4] addresses CD123 (human IL-3Rα) on cells (human) (UniProt P26951). The assay is described as follows: cell-based or functional assay. This is another data set of the same source.

Consider chimeric antibody CSL360, for which, in assay [1], the dissociation constant (Kd) (commonly the free concentration of one partner at which half of the binding sites on the other are occupied at equilibrium, for simple one-to-one binding) was 1.06 nM. In assay [2], this molecule came in with a % CD107a positive NK cells, RMH003 AML target cells, CSL360 10 µg/mL (FIG. 8B) of 39%; a % lysis, 51Cr release ADCC, CTLEN cells, E:T 10:1 of 10%; a % lysis, 51Cr release ADCC, CTLEN cells, E:T 100:1 of 51%; a % lysis, 51Cr release ADCC, SL (AML) cells, E:T 10:1 of 2.4%. In addition, in assay [2], the % lysis, 51Cr release ADCC, SL (AML) cells, E:T 100:1 worked out at 15%; the % lysis, calcein release ADCC, RBH013 (AML), E:T 10:1 was 0%; the % lysis, calcein release ADCC, RBH013 (AML), E:T 100:1 was 0%; the % lysis, calcein release ADCC, RMH003 (AML), E:T 10:1 was 39.2%. Also, in assay [2], the % lysis, calcein release ADCC, RMH003 (AML), E:T 100:1 is 82.6%; the % lysis, calcein release ADCC, RMH008 (AML), E:T 10:1 is 59.5%; the % lysis, calcein release ADCC, RMH008 (AML), E:T 100:1 was 100%; the % lysis, calcein release ADCC, RMH009 (B-ALL), E:T 10:1 was 0%. Besides, in assay [2], the % lysis, calcein release ADCC, RMH009 (B-ALL), E:T 100:1 is 0%; the % lysis, calcein release ADCC, RMH009* (B-ALL), repeat with other PBMC, E:T 10:1 is 0%; the % lysis, calcein release ADCC, RMH009* (B-ALL), repeat with other PBMC, E:T 100:1 was 0%; the % lysis, calcein release ADCC, RMH010 (AML), E:T 10:1 is 4%. Further, in assay [2], the % lysis, calcein release ADCC, RMH010 (AML), E:T 100:1 was 0%; the % of NK cells expressing CD107a, E:T 1:1, target CTLEN-001 was determined as 6.7%; the % of NK cells expressing CD107a, E:T 1:1, target CTLEN-008 came out at 24%; the % of NK cells expressing CD107a, E:T 1:1, target CTLEN-010 was found to be 5.7%. In assay [2], this molecule registered a % of NK cells expressing CD107a, E:T 1:1, target CTLEN-011-PBMC-1 of 8.1%; a % of NK cells expressing CD107a, E:T 1:1, target CTLEN-011-PBMC-2 of 10.5%; a % of NK cells expressing CD107a, E:T 1:1, target EL4hi-002 of 2.9%; a % of NK cells expressing CD107a, E:T 1:1, target EL4hi-003 of 15%. Further, in assay [2], the % of NK cells expressing CD107a, E:T 1:1, target EL4hi-004 stood at 16%; the % of NK cells expressing CD107a, E:T 1:1, target EL4hi-005 is 21%; the % of NK cells expressing CD107a, E:T 1:1, target EL4hi-010 amounted to 34%; the % of NK cells expressing CD107a, E:T 1:1, target EL4hi-011-PBMC-1 stood at 15.5%. Moreover, in assay [2], the % of NK cells expressing CD107a, E:T 1:1, target EL4hi-011-PBMC-2 is 23.5%; the % of NK cells expressing CD107a, E:T 1:1, target EL4hi/lo-001 came out at 2.8%; the % of NK cells expressing CD107a, E:T 1:1, target RBH009^a (AML) is 8.5%; the % of NK cells expressing CD107a, E:T 1:1, target RBH009^b (AML) worked out at 8%. In assay [2], this molecule gave a % of NK cells expressing CD107a, E:T 1:1, target RBH013^a (AML) of 10%; a % of NK cells expressing CD107a, E:T 1:1, target RBH013^b (AML) of 22%; a % of NK cells expressing CD107a, E:T 1:1, target RMH003^a (AML) of 30%; a % of NK cells expressing CD107a, E:T 1:1, target RMH003^b (AML) of 33%. For the same molecule, in assay [2], the % of NK cells expressing CD107a, E:T 1:1, target RMH003^c (AML) was 38%; the % of NK cells expressing CD107a, E:T 1:1, target RMH007 (B-ALL) was 16.4%; the % of NK cells expressing CD107a, E:T 1:1, target RMH008^a (AML) stood at 9%; the % of NK cells expressing CD107a, E:T 1:1, target RMH008^b (AML) came out at 16%. In assay [2], this molecule returned a % of NK cells expressing CD107a, E:T 1:1, target RMH008^c (AML) of 8.7%; a % of NK cells expressing CD107a, E:T 1:1, target RMH009^a (B-ALL) of 3%; a % of NK cells expressing CD107a, E:T 1:1, target RMH009^b (B-ALL) of 1.7%; a % of NK cells expressing CD107a, E:T 1:1, target RMH009^c (B-ALL) of 7.4%. Besides, in assay [2], the % of NK cells expressing CD107a, E:T 1:1, target RMH010^a (AML) worked out at 14%; the % of NK cells expressing CD107a, E:T 1:1, target RMH010^b (AML) amounted to 25.5%; the % of NK cells expressing CD107a, E:T 1:1, target RMH011 (AML) is 6.6%; the % of NK cells expressing CD107a, E:T 1:1, target TF-1 (GM-CSF) was determined as 0.7%. Further, in assay [2], the % of NK cells expressing CD107a, E:T 1:1, target TF-1(IL-3) is 1.45% and the IC50, IL-3-dependent TF-1 cell proliferation amounted to 5 nM.
Molecule “defucosylated hCSL360 produced by kifunensine treatment (hCSL360kif) (antibody)” had an antibody concentration for almost complete ADCC lysis of Raji-CD123 high cells, E:T 50:1 in assay [2] of 1 ng/mL.
In the case of “humanised CSL360S239D/A330L/I332E (hCSL360Fc3) (from UniProt P01857 1-330) (antibody)”, in assay [2], the antibody concentration for almost complete ADCC lysis of Raji-CD123 high cells, E:T 50:1 worked out at 1 ng/mL.
Regarding “humanised variant of CSL360 (hCSL360) (antibody)”, the Kd in assay [1] was found to be 12.8 nM. Also, the fold decrease in affinity compared to the chimeric MAb (CSL360) in assay [3] amounted to 10 fold. Further, in assay [2], the IC50, IL-3-dependent TF-1 cell proliferation is 19 nM.

B1: monoclonal antibody (MAb) 7G3 (antibody, from another filing, V domains shown)
VH: EVQLQQSGPELVKPGASVKMSCKASGYTFTDYYMKWVKQSHGKSLEWIGDIIPSNGATFYNQKFKGKATLTVDRSSSTAYMHLNSLTSEDSAVYYCTRSHLLRASWFAYWGQGTLVTVSA
VL: DFVMTQSPSSLTVTAGEKVTMSCKSSQSLLNSGNQKNYLTWYLQKPGQPPKLLIYWASTRESGVPDRFTGSGSGTDFTLTISSVQAEDLAVYYCQNDYSYPYTFGGGTKLEIKR
For the molecule B1, the IL-3 (1 nM)-stimulated CD131 tyrosine phosphorylation, STAT-5 and Akt activation in TF-1 cells; 7G3 concentration that blocks completely in assay [4] stood at 100 nM.

The values are drawn from US20130230510A1.
